The record followed here is patent US20140335107A1 (published 2014).

T1: extracellular domain of human CD79b (huCD79becd) (human, UniProt P40259 29-159)
T1 construct: expressed in CHO cells
T1 sequence: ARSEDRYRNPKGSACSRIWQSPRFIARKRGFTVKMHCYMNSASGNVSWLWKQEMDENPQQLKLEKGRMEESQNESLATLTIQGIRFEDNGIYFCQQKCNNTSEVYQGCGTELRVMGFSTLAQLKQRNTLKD

B1: huMA79b graft variant with HVR-L1 of SEQ ID NO: 17 (Fab, name in Kabat numbering, V domains shown)
VH: EVQLVESGGGLVQPGGSLRLSCAASGYTFSSYWIEWVRQAPGKGLEWVGEILPGGGDTNYNEIFKGRFTISADTSKNTAYLQMNSLRAEDTAVYYCTRRVPVYFDYWGQGTLVTVSS
VL: DIQMTQSPSSLSASVGDRVTITCKASKSVDYDGDSFLNWYQQKPGKAPKLLIYAASNLESGVPSRFSGSGSGTDFTLTISSLQPEDFATYYCQQSNEDPLTFGQGTKVEIKR
notes: Fab on phage; also called SPL-2 mutation
B2: huMA79b graft variant with HVR-L2 of SEQ ID NO: 26 (Fab, name in Kabat numbering, V domains shown)
VH: EVQLVESGGGLVQPGGSLRLSCAASGYTFSSYWIEWVRQAPGKGLEWVGEILPGGGDTNYNEIFKGRFTISADTSKNTAYLQMNSLRAEDTAVYYCTRRVPVYFDYWGQGTLVTVSS
VL: DIQMTQSPSSLSASVGDRVTITCKASQSVDYDGDSFLNWYQQKPGKAPKLLIYAARYLKRGVPSRFSGSGSGTDFTLTISSLQPEDFATYYCQQSNEDPLTFGQGTKVEIKR
notes: Fab on phage; also called L2-29 mutation
B3: huMA79b graft variant with HVR-L2 of SEQ ID NO: 25 (Fab, name in Kabat numbering, V domains shown)
VH: EVQLVESGGGLVQPGGSLRLSCAASGYTFSSYWIEWVRQAPGKGLEWVGEILPGGGDTNYNEIFKGRFTISADTSKNTAYLQMNSLRAEDTAVYYCTRRVPVYFDYWGQGTLVTVSS
VL: DIQMTQSPSSLSASVGDRVTITCKASQSVDYDGDSFLNWYQQKPGKAPKLLIYAARKLKRGVPSRFSGSGSGTDFTLTISSLQPEDFATYYCQQSNEDPLTFGQGTKVEIKR
notes: Fab on phage
B4: huMA79b graft variant with HVR-L2 of SEQ ID NO: 24 (Fab, name in Kabat numbering, V domains shown)
VH: EVQLVESGGGLVQPGGSLRLSCAASGYTFSSYWIEWVRQAPGKGLEWVGEILPGGGDTNYNEIFKGRFTISADTSKNTAYLQMNSLRAEDTAVYYCTRRVPVYFDYWGQGTLVTVSS
VL: DIQMTQSPSSLSASVGDRVTITCKASQSVDYDGDSFLNWYQQKPGKAPKLLIYAARKLGNGVPSRFSGSGSGTDFTLTISSLQPEDFATYYCQQSNEDPLTFGQGTKVEIKR
notes: Fab on phage
B5: huMA79b graft variant with HVR-L2 of SEQ ID NO: 18 (Fab, name in Kabat numbering, V domains shown)
VH: EVQLVESGGGLVQPGGSLRLSCAASGYTFSSYWIEWVRQAPGKGLEWVGEILPGGGDTNYNEIFKGRFTISADTSKNTAYLQMNSLRAEDTAVYYCTRRVPVYFDYWGQGTLVTVSS
VL: DIQMTQSPSSLSASVGDRVTITCKASQSVDYDGDSFLNWYQQKPGKAPKLLIYAASNRESGVPSRFSGSGSGTDFTLTISSLQPEDFATYYCQQSNEDPLTFGQGTKVEIKR
notes: Fab on phage
B6: huMA79b graft variant with HVR-L2 of SEQ ID NO: 19 (Fab, name in Kabat numbering, V domains shown)
VH: EVQLVESGGGLVQPGGSLRLSCAASGYTFSSYWIEWVRQAPGKGLEWVGEILPGGGDTNYNEIFKGRFTISADTSKNTAYLQMNSLRAEDTAVYYCTRRVPVYFDYWGQGTLVTVSS
VL: DIQMTQSPSSLSASVGDRVTITCKASQSVDYDGDSFLNWYQQKPGKAPKLLIYAASNLKSGVPSRFSGSGSGTDFTLTISSLQPEDFATYYCQQSNEDPLTFGQGTKVEIKR
notes: Fab on phage
B7: huMA79b graft variant with HVR-L2 of SEQ ID NO: 27 (Fab, name in Kabat numbering, V domains shown)
VH: EVQLVESGGGLVQPGGSLRLSCAASGYTFSSYWIEWVRQAPGKGLEWVGEILPGGGDTNYNEIFKGRFTISADTSKNTAYLQMNSLRAEDTAVYYCTRRVPVYFDYWGQGTLVTVSS
VL: DIQMTQSPSSLSASVGDRVTITCKASQSVDYDGDSFLNWYQQKPGKAPKLLIYAARKLKSGVPSRFSGSGSGTDFTLTISSLQPEDFATYYCQQSNEDPLTFGQGTKVEIKR
notes: Fab on phage
B8: huMA79b graft variant with HVR-L2 of SEQ ID NO: 23 (Fab, name in Kabat numbering, V domains shown)
VH: EVQLVESGGGLVQPGGSLRLSCAASGYTFSSYWIEWVRQAPGKGLEWVGEILPGGGDTNYNEIFKGRFTISADTSKNTAYLQMNSLRAEDTAVYYCTRRVPVYFDYWGQGTLVTVSS
VL: DIQMTQSPSSLSASVGDRVTITCKASQSVDYDGDSFLNWYQQKPGKAPKLLIYAASRLESGVPSRFSGSGSGTDFTLTISSLQPEDFATYYCQQSNEDPLTFGQGTKVEIKR
notes: Fab on phage

The assay deals with T1, extracellular domain of human CD79b …. Nature of the assay: phage selection, Fab on phage. Here is the method: For phage selection, the extracellular domain of CD79b (huCD79becd) (2 μg/ml) was immobilized in PBS on MaxiSorp microtiter plates (Nunc) overnight at 4° C. Plates were blocked for at least 1 h using Casein Blocker (Pierce). Phage were harvested from the culture supernatant and suspended in PBS containing 0.5% BSA and 0.05% Tween 20 (PBSBT). Following addition of the phage library and phage selection for 2 h, microtiter wells were washed extensively with PBS containing 0.05% Tween 20 (PBST) to remove unbound phage and bound phage were eluted by incubating the wells with 100 mM HCl for 30 min. Selection stringency may be increased during successive rounds of selection by increasing the number of washes with PBST or by incubating with soluble huCD79becd for increasing time periods prior to elution.
With B1, the binding result is given as “binds”.
Under B2 stands “binds”; under B3, “binds”.
Take B4: the binding result was “binds”.
Regarding B5, the binding result is reported as “binds”.
Under B6 stands “binds”.
In the case of B7 it was “binds”.
In the case of B8 it was “binds”.
